± gives the standard deviation of the averaged measurements.
B1: library; a variant is named by its letters at N, in order (parent)
chain: GCUGUCACCGGUGUAUUACCCUAGUGGUCGACCGGUCUGAUGAGUCUNNNNNNAGACGAAACAGC

Assays:
hypoxanthine [1] = variants of: B1; assay: normalized RNA/DNA level with ligand (relative to sTRSVctl = 100) (log10 (% of sTRSVctl)); ligand: hypoxanthine (xanthine aptamer); higher = less ribozyme self-cleavage, higher mRNA level; conditions: ligand concentration (+) RNA-Seq: 5 mM, HEK293T, reporter: mCherry (pCS4076), ligand present: yes
Outline: (§1)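 HEK293T cells received ligand, where used, 1 h before being transfected with 4 µg per 6-well well of library plasmids encoding reporter-linked ribozyme switches. After 72 h, RNA was extracted with EDTA and sequenced. RNA level was derived from RNA reads per DNA read, normalized to a spiked-in non-cleaving sequence or the top sequences, then scaled and log-transformed. Values were ×100 then log10, the top set was 25 sequences, and the minimum was 100 DNA reads.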

hypoxanthine [2] = variants of: B1; assay: normalized RNA/DNA level without ligand (relative to sTRSVctl = 100) (log10 (% of sTRSVctl)); ligand: hypoxanthine (xanthine aptamer); higher = less ribozyme self-cleavage, higher mRNA level; conditions: HEK293T, reporter: mCherry (pCS4076), ligand present: no
Outline: as §1

Row | Variant | normalized RNA/DNA level with ligand (log10) (hypoxanthine [1]) | normalized RNA/DNA level without ligand (log10) (hypoxanthine [2])
1 | UUCGGC | 1.95 ± 0.098 | 1.89 ± 0.025
2 | UUCGGG | 1.95 ± 0.044 | 1.73 ± 0.027
3 | UUCGGA | 1.95 ± 0.034 | 1.75 ± 0.044
4 | CUCCUG | 1.94 ± 0.021 | 1.953 ± 0.0068
5 | CUCCUU | 1.99 ± 0.087 | 1.89 ± 0.056
6 | CUCCUA | 1.96 ± 0.075 | 1.87 ± 0.055
7 | AUCUCG | 1.89 ± 0.024 | 1.59 ± 0.06
8 | AUCUCA | 1.96 ± 0.071 | 1.89 ± 0.043
9 | AUCUCC | 1.97 ± 0.039 | 1.9 ± 0.058
10 | AUCUCU | 1.99 ± 0.075 | 1.937 ± 0.0021
11 | CUGAGU | 1.94 ± 0.073 | 1.839 ± 0.0049
12 | CUGAGC | 1.947 ± 0.0077 | 1.79 ± 0.065
13 | CUCCCA | 1.991 ± 0.0032 | 1.87 ± 0.046
14 | CUCCCU | 1.94 ± 0.039 | 1.97 ± 0.043
15 | AUCUGC | 1.97 ± 0.04 | 1.88 ± 0.022
16 | AUCUGU | 1.91 ± 0.026 | 1.787 ± 0.014
17 | UUGAGU | 1.92 ± 0.026 | 1.75 ± 0.026
18 | CUAUCU | 1.9 ± 0.075 | 1.89 ± 0.042
19 | GUGAGU | 1.94 ± 0.028 | 1.639 ± 0.0057
20 | AUCGGG | 1.889 ± 0.0042 | 1.52 ± 0.06
21 | AUCGGA | 1.94 ± 0.044 | 1.74 ± 0.061
22 | AUCGGU | 1.91 ± 0.02 | 1.6043 ± 0.0014
23 | AUCGGC | 1.97 ± 0.099 | 1.86 ± 0.029
24 | CUCUUU | 2 ± 0.0092 | 1.912 ± 0.014
25 | CUCUUG | 1.93 ± 0.045 | 1.87 ± 0.044
26 | CUCUUA | 1.895 ± 0.0051 | 1.825 ± 0.012
27 | UUCAUU | 1.95 ± 0.025 | 1.91 ± 0.071
28 | UUCAUG | 1.95 ± 0.029 | 1.78 ± 0.056
29 | UUCAUA | 1.88 ± 0.019 | 1.8411 ± 0.0016

Reference: the supplement of paper PMC6757056
